The results in this text go back to publication PMC6997106, “The Trp triad within the V-domain of the receptor for advanced glycation end products modulates folding, stability and ligand binding” (Bioscience Reports, 2020).

To fix the notation:
B1: RAGE V-domain (residues 23-132), wild type (domain or fragment, human, UniProt Q15109 23-132, looked up)
chain: AQNITARIGEPLVLKCKGAPKKPPQRLEWKLNTGRTEAWKVLSPQGGGPWDSVARVLPNGSLFLPAVGIQDEGIFRCQAMNRNGKETKSNYRVRVYQIPGKPEIVDSASE
notes: receptor for advanced glycation end products (RAGE), human, V-domain, residues 23-132 of uniprot Q15109; Cloned into pET15b by NcoI and XhoI; also called WT; wild-type V-domain; source: E. coli Shuffle T7 Express, purified (HisTrap HP, HiTrap SP FF cation exchange)
B2: RAGE V-domain (residues 23-132) W61A (domain or fragment, human, UniProt Q15109 23-132, looked up)
chain: AQNITARIGEPLVLKCKGAPKKPPQRLEWKLNTGRTEAAKVLSPQGGGPWDSVARVLPNGSLFLPAVGIQDEGIFRCQAMNRNGKETKSNYRVRVYQIPGKPEIVDSASE
notes: RAGE, human, V-domain, residues 23-132 of uniprot Q15109; Same construct as m1 with the mutation; source: E. coli Shuffle T7 Express, purified (HisTrap HP, HiTrap SP FF cation exchange)
B4: RAGE V-domain (residues 23-132) W72A (domain or fragment, human, UniProt Q15109 23-132, looked up)
chain: AQNITARIGEPLVLKCKGAPKKPPQRLEWKLNTGRTEAWKVLSPQGGGPADSVARVLPNGSLFLPAVGIQDEGIFRCQAMNRNGKETKSNYRVRVYQIPGKPEIVDSASE
notes: as for B2
B6: Recombinant human S100B (natural protein)
chain: MSELEKAMVALIDVFHQYSGREGDKHKLKKSELKELINNELSHFLEEIKEQEVVDKVMETLDNDGDGECDFQEFMAFVAMVTTACHEFFEHE
notes: S100B, human, uniprot P04271; Homodimer in the crystal structure 5D7F; also called calcium-loaded S100B

The target of series [1] is B6. As to the kind of experiment: tryptophan fluorescence lifetime; 1 µM V-domain, with S100B in the presence of 2 mM calcium; excitation 280 nm; amplitude weighted average lifetime τm. The conditions noted are these: both partners purified.
Series [2] concerns the target B1. The series can be described thus: fluorescence polarisation; 1 µM S100B-FITC in 50 mM Tris, pH 7.0, 2 mM CaCl2 titrated with V-domain stock solutions; 1:1 RAGE:S100B model; apparent. The conditions noted are these: both partners purified.
For series [3], the target named is T1, RAGE V-domain (residues 23-132) W51A/W61A (human, UniProt Q15109 23-132, W51A | W61A).
T1 construct: RAGE, human, V-domain, residues 23-132 of uniprot Q15109; Same construct as m1 with the mutations; also called W51/W61; source: E. coli Shuffle T7 Express, purified (HisTrap HP, HiTrap SP FF cation exchange)
The series is described as above. The conditions noted are these: both partners purified.

Series [4] deals with T2, RAGE V-domain (residues 23-132) W51A/W72A (human, UniProt Q15109 23-132, W51A | W72A).
T2 construct: RAGE, human, V-domain, residues 23-132 of uniprot Q15109; Same construct as m1 with the mutations; source: E. coli Shuffle T7 Express, purified (HisTrap HP, HiTrap SP FF cation exchange)
The series is described as above. The conditions noted are these: both partners purified.

The target in series [5] is B2. Described as above. The conditions noted are these: both partners purified.
For series [6], the target named is B4. The description is as above. The settings on record: both partners purified.
For series [7], the target named is T3, RAGE V-domain (residues 23-132) W51A (human, UniProt Q15109 23-132, W51A).
T3 construct: RAGE, human, V-domain, residues 23-132 of uniprot Q15109; Same construct as m1 with the mutation; source: E. coli Shuffle T7 Express, purified (HisTrap HP, HiTrap SP FF cation exchange)
The series is described as above. The settings on record: both partners purified.

In series [8] the target is T4, RAGE V-domain (residues 23-132) W61A/W72A (human, UniProt Q15109 23-132, W61A | W72A).
T4 construct: RAGE, human, V-domain, residues 23-132 of uniprot Q15109; Same construct as m1 with the mutations; source: E. coli Shuffle T7 Express, purified (HisTrap HP, HiTrap SP FF cation exchange)
The description is as above. The settings on record: both partners purified.

In series [9] the target is B6. The series can be described thus: crystal structure; 2 mM S100B with 3 mM peptide W72, CaCl2 present; sitting drop, 0.1 M Na cacodylate pH 6.8, 22% PEG 3350, 5 mM CaCl2, 20°C. The settings on record: both partners purified.
Series [10] deals with the molecule itself. The series is described as above.
Series [11] concerns the target B1. As to the kind of experiment: steady-state tryptophan fluorescence; emission spectra of V-domains alone and as V-domain:S100B complexes; excitation at 295 nm. The settings on record: both partners purified.
Series [12] has as its target T1, RAGE V-domain (residues 23-132) …. The series is described as above. The conditions noted are these: both partners purified.
For series [13], the target named is T2, RAGE V-domain (residues 23-132) …. Described as above. The settings on record: both partners purified.
Series [14] has as its target B2. The description is as above. The conditions noted are these: both partners purified.
Series [15] has as its target B4. Described as above. The conditions noted are these: both partners purified.
The target in series [16] is T3, RAGE V-domain (residues 23-132) W51A. The series is described as above. The settings on record: both partners purified.
The target in series [17] is T4, RAGE V-domain (residues 23-132) …. The series is described as above. The settings on record: both partners purified.

Regarding B1, in series [1], the “Δτm (change of the average Trp fluorescence lifetime with S100B)” value was -0.83 ns.

Turning to B2, in series [1], the “Δτm (change of the average Trp fluorescence lifetime with S100B)” value is -0.8 ns.

B3: FITC-labeled recombinant human S100B (natural protein)
chain: MSELEKAMVALIDVFHQYSGREGDKHKLKKSELKELINNELSHFLEEIKEQEVVDKVMETLDNDGDGECDFQEFMAFVAMVTTACHEFFEHE
modifications: fluorescein (FITC labeling kit, 5-fold excess of FITC over protein; sites not stated)
notes: S100B, human, uniprot P04271; the titrations were fitted with a 1:1 RAGE:S100B model; also called S100B-FITC; FITC-labeled S100B; source: labeled with an FITC labeling kit (Pierce/Thermo Fisher 53027)
Turning to B3, the Kd turned out to be 2.7 ± 0.3 µM in series [2]; 0.66 ± 0.12 µM in series [3]; 0.46 ± 0.32 µM in [4]; 0.87 ± 0.04 µM in [5]; 1.12 ± 1.01 µM in [6]; 0.48 ± 0.06 µM in [7]. Moreover, the Kd in series [8] turned out to be 0.37 ± 0.09 µM.

Take B4: in [1], the “Δτm (change of the average Trp fluorescence lifetime with S100B)” value was -1 ns.

B5: RAGE-derived peptide W72 (RAGE residues 65-79) (peptide)
peptide: Ac-SPQGGGPWDSVARVL-NH2
notes: RAGE, human, residues 65-79; also called W72 peptide; source: synthetic peptide
For B5, the binding result in series [9] is on record as “binds”.

For the molecule B6, the binding result in series [10], in series [11], in series [12], in [13], in [14] and in series [15] was “binds” each time. Moreover, the binding result in [16] and in series [17] was “binds” each time.
